In this test the target is Y1F Rpb1 (Rpb1 with a CTD of 26 FSPTSPS repeats) (S. cerevisiae). The test is described as follows: co-IP.

The source of these data is PMC5736309.

B1: 3HA-tagged Nrd1 (natural protein)
chain: MQQDDDFQNFVATLESFKDLKSGISGSRIKKLTTYALDHIDIESKIISLIIDYSRLCPDSHKLGSLYIIDSIGRAYLDETRSNSNSSSNKPGTCAHAINTLGEVIQELLSDAIAKSNQDHKEKIRMLLDIWDRSGLFQKSYLNAIRSKCFAMDISNNTANTASQQLSLDPKQRSKQILSNLKKSPPLNLNISLPTDLTSTDPAKQQAALFQVIAALQKHFKTLPSHTSVGTVAPPQAHTITEYGSRRERERERERYNSRRNRSRSPPAPFSQPSTGRKDRYPSVAQDQYSIGAPNTTFGTNNHHLYPDELNVSNNPHYRPKPVSYDSTLPPDHIKVYSRTLFIGGVPLNMKEWDLANVLKPFAEVQSVILNNSRKHAFVKVYSRHEAENVLQNFNKDGALPLRTRWGVGFGPRDCCDYQHGYSIIPMHRLTDADKKWSVSAQWGGTSGQPLVTGIVFEEPDIIVGEGVSSKAISQKMPTDSGRNGPRSGKPNKSGSISSISPVPYGNAPLASPPPQQYVQPMMQQPYGYAPNQPLPSQGPAAAAPPVPQQQFDPTAQLNSLMNMLNQQQQQQQQS
B1: the fold change in binding against WT Rpb1 was 7.3 fold.
